{"source": "paper PMC3328432", "about": "(PLoS Biology, 2012)", "binders": {"B1": {"name": "human alanine-glyoxylate aminotransferase (AGT), wild type, major allele haplotype (enzyme, UniProt P21549 1-392, looked up)", "chain": "MASHKLLVTPPKALLKPLSIPNQLLLGPGPSNLPPRIMAAGGLQMIGSMSKDMYQIMDEIKEGIQYVFQTRNPLTLVISGSGHCALEAALVNVLEPGDSFLVGANGIWGQRAVDIGERIGARVHPMTKDPGGHYTLQEVEEGLAQHKPVLLFLTHGESSTGVLQPLDGFGELCHRYKCLLLVDSVASLGGTPLYMDRQGIDILYSGSQKALNAPPGTSLISFSDKAKKKMYSRKTKPFSFYLDIKWLANFWGCDDQPRMYHHTIPVISLYSLRESLALIAEQGLENSWRQHREAAAYLHGRLQALGLQLFVKDPALRLPTVTTVAVPAGYDWRDIVSYVIDHFDIEIMGGLGPSTGKVLRIGLLGCNATRENVDRVTEALRAALQHCPKKKL", "modifications": "pyridoxal-5'-phosphate (PLP) covalently bound to Lys209", "notes": "Alanine-glyoxylate aminotransferase (AGT, EC 2.6.1.44), human, major allele haplotype; C-terminus at Leu392; called the complete protein; 86 kDa homodimer; In the import assay in fibroblasts the protein was EGFP-tagged (pEGFP-C1 derived); the functional row uses this molecule; also called AGT(wt); wt-EGFP-AGT (in the import assay); source: E. coli BL21(DE3) RIL, purified (Ni-NTA, TEV cleavage, …)"}, "B2": {"name": "C-terminal cargo-binding segment of human Pex5p (residues 315-639) (domain or fragment)", "chain": "not shown", "notes": "Peroxisomal import receptor Pex5p, human, residues 315-639 (seven TPR segments and C-terminal helical bundle); In the functional rows the receptor was the endogenous Pex5p of human fibroblasts; this molecule stands for it; also called Pex5p(C); Pex5p receptor; source: E. coli BL21(DE3) RIL, purified (Ni-NTA, TEV cleavage, second Ni-NTA, gel filtration); not shown: His6, N-terminal, cleaved; GST, …"}}, "key": {"[1]": {"target": "the molecule itself", "assay": "SEC-MALS; analytical gel filtration and static light scattering (MiniDAWN); complex formed by mixing purified Pex5p(C) and AGT; single components also run"}, "[2]": {"target": "B1", "assay": "ITC", "conditions": "both partners purified"}, "[3]": {"target": "B1", "assay": "ITC", "conditions": "both partners purified", "remark": "listed apart in the source"}, "[4]": {"target": "B1", "assay": "SEC-MALS; analytical gel filtration and static light scattering (MiniDAWN); complex formed by mixing purified Pex5p(C) and AGT; single components also run", "conditions": "both partners purified"}}}
{"binder": "B1", "values": [{"measurement": "stoichiometry N", "setting": "[1]", "result": 2}]}
{"binder": "B2", "values": [{"measurement": "stoichiometry N", "setting": "[2]", "result": 1}, {"measurement": "Kd", "setting": "[3]", "result": "3.5 ± 0.4", "unit": "µM"}, {"measurement": "stoichiometry N", "setting": "[4]", "result": "1 Pex5p(C) per AGT chain"}]}
